Results reported in patent publication US20030054515A1 (MYRIAD GENETICS, published 2003).

Assays:
[1] = molecular target: T1, Nuclear receptor coactivator 2 (NCOA2), amino acids 366-624, bait fused to the Gal4 DNA binding domain (Saccharomyces cerevisiae, UniProt P04386 1-147; Q15596 366-624); assay: yeast two-hybrid; Gal4 DBD bait, prey from human brain library (Gal4 AD)
T1 construct: Bait expressed in yeast from vector pGBTQ as a C-terminal fusion to Gal4 DBD; Residues are counted on GenBank X97674; also called GRIP 1
Source text: A total human brain (person) cDNA library cloned into the yeast expression vector pACT2 was purchased from Clontech (human brain […] cDNA, cat. #HL4004AH), transformed into the yeast strain J692 (genotype of this strain: Mat a, ade2, his3, leu2, trp1, URA3::GAL1-lacZ LYS2::GAL1-HIS3 gal4del gal80del cyhR2), and selected for the ability to drive leucine synthesis. In these yeast cells, each cDNA is expressed as a fusion protein with the transcription activation domain of the transcription factor Gal4 (amino acids 768 to 881) and a 9 amino acid hemagglutinin epitope tag. J693 cells (Mat α type) expressing the bait were then mated with J692 cells (Mat a type) expressing proteins from the brain library. The resulting diploid yeast cells expressing proteins interacting with the bait protein were selected for the ability to synthesize tryptophan, leucine, histidine, and β-galactosidase. DNA was prepared from each clone, transformed by electroporation into E. coli strain KC8 (Clontech KC8 electrocompetent cells, cat. #C2023-1), and the cells were selected on ampicillin-containing plates in the absence of either tryptophane (selection for the bait plasmid) or leucine (selection for the brain library plasmid). DNA for both plasmids was prepared and sequenced by di-deoxynucleotide chain termination method. […]

[2] = molecular target: T1, Nuclear receptor coactivator 2 (NCOA2), …; assay: yeast two-hybrid; bait NCOA2 aa 366-624 (Gal4 DBD), prey from human brain library (Gal4 AD)
Source text: (§1) In these yeast cells, the bait is produced as a C-terminal fusion protein with the DNA binding domain of the transcription factor Gal4 (amino acids 1 to 147). A total human brain (person) cDNA library cloned into the yeast expression vector pACT2 was purchased from Clontech (human brain […] cDNA, cat. #HL4004AH), transformed into the yeast strain J692 (genotype of this strain: Mat a, ade2, his3, leu2, trp1, URA3::GAL1-lacZ LYS2::GAL1-HIS3 gal4del gal80del cyhR2), and selected for the ability to drive leucine synthesis. In these yeast cells, each cDNA is expressed as a fusion protein with the transcription activation domain of the transcription factor Gal4 (amino acids 768 to 881) and a 9 amino acid hemagglutinin epitope tag. J693 cells (Mat α type) expressing the bait were then mated with J692 cells (Mat a type) expressing proteins from the brain library. The resulting diploid yeast cells expressing proteins interacting with the bait protein were selected for the ability to synthesize tryptophan, leucine, histidine, and β-galactosidase. DNA was prepared from each clone, transformed by electroporation into E. coli strain KC8 (Clontech KC8 electrocompetent cells, cat. #C2023-1), and the cells were selected on ampicillin-containing plates in the absence of either tryptophane (selection for the bait plasmid) or leucine (selection for the brain library plasmid). […]

[3] = molecular target: T1, Nuclear receptor coactivator 2 (NCOA2), …; assay: yeast two-hybrid screen with NCOA2 as bait
Source text: as §1

| binding result [1] | Binder | also measured |
| --- | --- | --- |
| binds | Beta catenin (B-CAT), amino acids 487-668, prey clone fused to the Gal4 activation domain (other, Saccharomyces cerevisiae;human, UniProt P04386 768-881, looked up, not shown: small tags and cut ends, Prey from a human brain cDNA library in pACT2; residues counted on GenBank Z19054) ANFNQSGNIADSSLSFTFTNSSNGPNLITTQTNSQALSQPIASSNVHDNFMNNEITASKIDDGNNSKPLSPGWTDQTAYNAFGITTGMFNTTTMDDVYNYLFDDEDTPPNPKKELHYGLPVVVKLLHPPSHWPLIKATVGLIRNLALCPANHAPLREQGAIPRLVQLLVRAHQDTQRRTSMGGTQQQFVEGVRMEEIVEGCTGALHILARDVHNRIVIRGLNTIPLFVQLLYSPIENIQRVAAGVLCELAQDKEAAEAIEAEGATAPLTELLHSRNEGVATYAAAVLFRMSEDKPQ |  |
|  | XE169, amino acids 1239-1439, prey clone fused to the Gal4 activation domain (other, Saccharomyces cerevisiae;human, UniProt P04386 768-881, looked up, not shown: small tags and cut ends, Prey from a human brain cDNA library in pACT2; also called SMCX) ANFNQSGNIADSSLSFTFTNSSNGPNLITTQTNSQALSQPIASSNVHDNFMNNEITASKIDDGNNSKPLSPGWTDQTAYNAFGITTGMFNTTTMDDVYNYLFDDEDTPPNPKKEDTKFLCPLCMRSRRPRLETILALLVALQRLPVRLPEGEALQCLTERAISWQGRARQALASEDVTALLGRLAELRQRLQAEPRPEEPPNYPAAPASDPLREGSGKDMPKVQGLLENGDSVTSPEKVAPEEGSGLELLSSLLPQLTGPVLELPEATRAPLEELMMEGDLLEVTLDENHSIWQLLQAGQPPDLERIRTLLE | binding result [2]: binds |
| binds | KIAA0619, amino acids 589-828, prey clone fused to the Gal4 activation domain (other, Saccharomyces cerevisiae;human, UniProt P04386 768-881, looked up, not shown: small tags and cut ends, Prey from a human brain cDNA library in pACT2; residues counted on GenBank AB014519; also called ROCK2) ANFNQSGNIADSSLSFTFTNSSNGPNLITTQTNSQALSQPIASSNVHDNFMNNEITASKIDDGNNSKPLSPGWTDQTAYNAFGITTGMFNTTTMDDVYNYLFDDEDTPPNPKKESKQIQQLESNNRDLQDKNCLLETAKLKLEKEFINLQSALESERRDRTHGSEIINDLQGRICGLEEDLKNGKILLAKVELEKRQLQERFTDLEKEKSNMEIDMTYQLKVIQQSLEQEEAEHKATKARLADKNKIYESIEEAKSEAMKEMEKKLLEERTLKQKVENLLLEAEKRCSLLDCDLKQSQQKINELLKQKDVLNEDVRNLTLKIEQETQKRCLTQNDLKMQTQQVNTLKMSEKQLK |  |
|  | PN12361, amino acids 1-223, prey clone fused to the Gal4 activation domain (other, Saccharomyces cerevisiae, not shown: small tags and cut ends, range 768-881; Prey from a human brain cDNA library in pACT2; also called novel AZ2-like protein) ANFNQSGNIADSSLSFTFTNSSNGPNLITTQTNSQALSQPIASSNVHDNFMNNEITASKIDDGNNSKPLSPGWTDQTAYNAFGITTGMFNTTTMDDVYNYLFDDEDTPPNPKKEMDALVEDDICILNHEKAHKRDTVTPVSIYSGDESVASHFALVTAYEDIKKRLKDSEKENSLLKKRIRFLEEKLIARFEEETSSVGREQVNKAYHAYREVCIDRDNLKSKLDKMNKDNSESLKVLNEQLQSKEVELLQLRTEVETQQVMRNLNPPSSNWEVEKLSCDLKIHGLEQELELMRKECSDLKIELQKAKQTDPYQEDNLKSRDLQKLSISSDNMQHAY | binding result [3]: binds |
